Usually Kd stands for the free concentration of one partner at which half of the binding sites on the other are occupied at equilibrium, for simple one-to-one binding. By stoichiometry N is commonly meant a count of units in the complex or per binding partner.

The record followed here is article PMC8111780, “NMR structural analysis of the yeast cytochrome c oxidase subunit Cox13 and its interaction with ATP” (BMC Biology, 2021).

For one series, the target named is T1, Cox13 (Saccharomyces cerevisiae, UniProt P32799).
T1 construct: 15 kDa; homodimer
T1 sequence (P32799 1-129): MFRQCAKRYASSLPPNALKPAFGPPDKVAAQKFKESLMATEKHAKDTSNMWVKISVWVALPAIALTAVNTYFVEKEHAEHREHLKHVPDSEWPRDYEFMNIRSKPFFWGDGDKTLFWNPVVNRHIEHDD
Put plainly: 1H-15N HSQC NMR titration (chemical shift perturbation, global fit). The series is classed as binding.

For series [1], the target named is Cox13Δ-CytcO: S. cerevisiae cytochrome c oxidase lacking Cox13, with a Flag-tag on Cox6 (S. cerevisiae) (UniProt P00401).
Sequence of Cox13Δ-CytcO: S. cerevisiae cytochrome c oxidase lacking Cox13, with a Flag-tag on Cox6 (S. cerevisiae) (P00401 whole entry, looked up, stated change not applied): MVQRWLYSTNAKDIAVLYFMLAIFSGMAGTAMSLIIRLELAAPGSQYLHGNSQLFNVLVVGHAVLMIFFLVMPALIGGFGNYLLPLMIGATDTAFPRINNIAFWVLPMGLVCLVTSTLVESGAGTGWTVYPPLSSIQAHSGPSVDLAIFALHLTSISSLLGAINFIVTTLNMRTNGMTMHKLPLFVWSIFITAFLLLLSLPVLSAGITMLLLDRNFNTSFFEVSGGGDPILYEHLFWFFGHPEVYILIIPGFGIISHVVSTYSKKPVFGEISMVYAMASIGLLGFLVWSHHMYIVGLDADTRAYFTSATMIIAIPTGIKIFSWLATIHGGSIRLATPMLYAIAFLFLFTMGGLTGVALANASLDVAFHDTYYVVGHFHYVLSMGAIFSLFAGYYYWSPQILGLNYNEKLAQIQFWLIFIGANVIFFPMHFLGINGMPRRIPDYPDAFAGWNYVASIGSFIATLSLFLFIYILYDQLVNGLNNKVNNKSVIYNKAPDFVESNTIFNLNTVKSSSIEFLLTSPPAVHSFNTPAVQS
The target in series [2] is wildtype S. cerevisiae cytochrome c oxidase (CytcO, Complex IV) with a 6xHis-tag on Cox13 (S. cerevisiae) (UniProt P00401).
Sequence of wildtype S. cerevisiae cytochrome c oxidase (CytcO, Complex IV) with a 6xHis-tag on Cox13 (S. cerevisiae) (P00401 whole entry, looked up, one chain of several): as the sequence (P00401 whole entry, looked up, stated change not applied) above
Another series concerns T2, Cox13Δ-CytcO.
T2 construct: gene COX1; Complex IV lacking subunit Cox13, Flag-tag on Cox6, purified from yeast membranes in DDM; ATP site not assigned
Description: oxygen consumption (Clark electrode), activity vs ATP. The series is classed as biochemical, Saccharomyces cerevisiae. The conditions noted are these: tentative fit of stimulation of turnover; yeast cyt. c 50 μM, ascorbate, TMPD, 0.035% DDM, KPi; allosteric, more than one site.

Series [3] concerns the molecule itself. Put plainly: SEC; Superdex 200 10/300; 20 mM NaPi pH 6.5, 50 mM L-Arg, 50 mM L-Glu, 1 mM DTT, 3 mM DPC; Cox13-DPC complex elutes in a single peak of apparent mass 55-60 kDa. For orientation: SEC sorts molecules by how far they enter the pores of the column.

For the molecule `Nc1ncnc2c1ncn2[C@@H]1O[C@H](COP(=O)(O)OP(=O)(O)O)[C@@H](O)[C@H]1O` [ADP], the dissociation constant (Kd) on Cox13 was 17 ± 2 mM.

Consider “yeast cytochrome c (from UniProt P00044 1-109) (natural protein)”, for which, in series [1], the Km^1 (low Km) for cyt. c, oxygen-consumption turnover of purified Cox13Δ-CytcO against added yeast cyt. c, no ATP came out at 0.2 µM; the Km^2 (high Km) for cyt. c, oxygen-consumption turnover of purified Cox13Δ-CytcO against added yeast cyt. c, no ATP amounted to 20 µM; the single Km for cyt. c, oxygen-consumption turnover of purified Cox13Δ-CytcO against added yeast cyt. c, with 5 mM ATP was 5.8 µM. In series [2], the Km^1 (low Km) for cyt. c, oxygen-consumption turnover of purified CytcO against added yeast cyt. c, no ATP amounted to 1.3 µM; the Km^2 (high Km) for cyt. c, oxygen-consumption turnover of purified CytcO against added yeast cyt. c, no ATP stood at 20 µM; the single Km for cyt. c, oxygen-consumption turnover of purified CytcO against added yeast cyt. c, with 5 mM ATP worked out at 8.6 µM.

As to `Nc1ncnc2c1ncn2[C@@H]1O[C@H](COP(=O)(O)OP(=O)(O)OP(=O)(O)O)[C@@H](O)[C@H]1O` [ATP], the figures for the equilibrium dissociation constant (Kd) entry in the series with Cox13Δ-CytcO and on Cox13 were “ATP binds less tight (with tentative Kd in the mM range” and 15 ± 2 mM, respectively.

B1: Cox13 (cytochrome c oxidase subunit Cox13) from S. cerevisiae, refolded in DPC micelles (natural protein)
chain: ASSLPPNALKPAFGPPDKVAAQKFKESLMATEKHAKDTSNMWVKISVWVALPAIALTAVNTYFVEKEHAEHREHLKHVPDSEWPRDYEFMNIRSKPFFWGDGDKTLFWNPVVNRHIEHDD
notes: Cox13, cytochrome c oxidase subunit of S. cerevisiae; the gene was cloned into pET-28a; predicted mass 15 kDa; residues assigned up to I125; Isotope-labelled (15N and/or 13C) or unlabelled, depending on the experiment; also called Cox13-DPC complex; CoxVIa in mammals (homolog)
B1: the “stoichiometry N” value in series [3] was found to be 2.
